Experimental data: patent US20200079833A1 (AstraZeneca / MedImmune, published 2020)
Starred links: 1 amine or outer side, 2 acyl side, 3 side chain; linkers in the order of their positions; H or OH if unused. Non-standard residues stand in square brackets, D forms with d. Groups on a side chain read outwards from the residue. Primed or numbered codes have the meaning given here. No end group written: not given here. *: point of attachment. γGlu = O=C(O)[C@H](CCC(=O)[*:2])N[*:1]; Stearoyl = CCCCCCCCCCCCCCCCCC(=O)*; Palmitoyl = CCCCCCCCCCCCCCCC(=O)*; αMeF = C[C@](N)(Cc1ccccc1)C(=O)O; αMeK = C[C@](N)(CCCCN)C(=O)O; αMeS = C[C@](N)(CO)C(=O)O; PEG2′ = not defined here; Aib = CC(C)(N)C(=O)O

T1: glucose-dependent insulinotropic peptide (gastric inhibitory polypeptide) receptor (GIPR) (human, UniProt P48546 22-466)
T1 sequence (looked up): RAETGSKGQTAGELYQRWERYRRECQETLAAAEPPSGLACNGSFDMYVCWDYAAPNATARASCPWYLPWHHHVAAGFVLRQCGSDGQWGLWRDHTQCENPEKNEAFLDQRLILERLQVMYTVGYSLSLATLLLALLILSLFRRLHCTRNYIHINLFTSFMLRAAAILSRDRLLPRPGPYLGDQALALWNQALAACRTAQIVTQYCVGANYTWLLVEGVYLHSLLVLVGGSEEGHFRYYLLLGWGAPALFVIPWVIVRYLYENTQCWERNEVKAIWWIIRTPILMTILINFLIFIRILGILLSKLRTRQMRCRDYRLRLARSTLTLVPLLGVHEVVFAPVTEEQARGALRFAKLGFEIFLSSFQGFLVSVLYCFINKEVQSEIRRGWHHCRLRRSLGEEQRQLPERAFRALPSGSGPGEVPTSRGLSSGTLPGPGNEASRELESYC

B1: SEQ ID NO 96 (peptide)
peptide: H[Aib]EK([γGlu-Palmitoyl])S[αMeF]TSDV[αMeS]S[αMeF]LEGEAA[αMeK]E[αMeF]IA[αMeF]VV[αMeK]GG-NH2
modifications: N-terminus assumed
SMILES: CCCCCCCCCCCCCCCC(=O)N[C@@H](CCC(=O)NCCCC[C@H](NC(=O)[C@H](CCC(=O)O)NC(=O)C(C)(C)NC(=O)[C@@H](N)Cc1c[nH]cn1)C(=O)N[C@@H](CO)C(=O)N[C@@](C)(Cc1ccccc1)C(=O)N[C@H](C(=O)N[C@@H](CO)C(=O)N[C@@H](CC(=O)O)C(=O)N[C@H](C(=O)N[C@@](C)(CO)C(=O)N[C@@H](CO)C(=O)N[C@@](C)(Cc1ccccc1)C(=O)N[C@@H](CC(C)C)C(=O)N[C@@H](CCC(=O)O)C(=O)NCC(=O)N[C@@H](CCC(=O)O)C(=O)N[C@@H](C)C(=O)N[C@@H](C)C(=O)N[C@@](C)(CCCCN)C(=O)N[C@@H](CCC(=O)O)C(=O)N[C@@](C)(Cc1ccccc1)C(=O)N[C@H](C(=O)N[C@@H](C)C(=O)N[C@@](C)(Cc1ccccc1)C(=O)N[C@H](C(=O)N[C@H](C(=O)N[C@@](C)(CCCCN)C(=O)NCC(=O)NCC(N)=O)C(C)C)C(C)C)[C@@H](C)CC)C(C)C)[C@@H](C)O)C(=O)O

Biological target: T1, glucose-dependent insulinotropic …
Test: cell-based or functional assay

Row | Binder | cAMP Primary assay EC50 GIP-R [nM] | cAMP Primary assay EC50 GIP-R (2nd) [nM]
1 | H[Aib]EGS[αMeF]TSDV[αMeS]S[αMeF]LEGEAA[αMeK]E[αMeF]IA[αMeF]VVK([PEG2′-PEG2′-γGlu-Stearoyl])GG-NH2 [SEQ ID NO 101] | 25 | 25.4
2 | H[Aib]EGS[αMeF]TSDV[αMeS]S[αMeF]LEGEAA[αMeK]E[αMeF]IA[αMeF]VV[αMeK]K([PEG2′-PEG2′-γGlu-Stearoyl])G-NH2 [SEQ ID NO 100] | 25 | 24.9
3 | H[Aib]EGS[αMeF]TSDV[αMeS]S[αMeF]LEGEAA[αMeK]E[αMeF]IK([PEG2′-PEG2′-γGlu-Stearoyl])[αMeF]VV[αMeK]GG-NH2 [SEQ ID NO 105] | 25 | 25
4 | B1 | 27 | 27
5 | H[Aib]EGS[αMeF]TSDV[αMeS]S[αMeF]LEGEAA[αMeK]E[αMeF]IA[αMeF]VK([PEG2′-PEG2′-γGlu-Stearoyl])[αMeK]GG-NH2 [SEQ ID NO 102] | 25 | 25.2
6 | HK([γGlu-Palmitoyl])EGS[αMeF]TSDV[αMeS]S[αMeF]LEGEAA[αMeK]E[αMeF]IA[αMeF]VV[αMeK]GG-NH2 [SEQ ID NO 98] | 28 | 28
7 | H[Aib]EGS[αMeF]TSDV[αMeS]S[αMeF]LEGEAA[αMeK]E[αMeF]K([PEG2′-PEG2′-γGlu-Stearoyl])A[αMeF]VV[αMeK]GG-NH2 [SEQ ID NO 106] | 25 | 25.3

Biological target: GLP-1 receptor (GLP-1R) (human, UniProt P43220 24-463)
Test: cell-based or functional assay

Row | Binder | cAMP Mean pM GLP-1R [pM] | cAMP Primary assay EC50 GLP-1R n1 [nM] | cAMP Primary assay EC50 GLP-1R n2 [nM]
8 | H[Aib]EGS[αMeF]TSDV[αMeS]S[αMeF]LEGEAA[αMeK]E[αMeF]IA[αMeF]VVK([PEG2′-PEG2′-γGlu-Stearoyl])GG-NH2 [SEQ ID NO 101] | 55 | 0.058 | 0.0512
9 | H[Aib]EGS[αMeF]TSDV[αMeS]S[αMeF]LEGEAA[αMeK]E[αMeF]IA[αMeF]VV[αMeK]K([PEG2′-PEG2′-γGlu-Stearoyl])G-NH2 [SEQ ID NO 100] | 15 | 0.016 | 0.0146
10 | H[Aib]EGS[αMeF]TSDV[αMeS]S[αMeF]LEGEAA[αMeK]E[αMeF]IK([PEG2′-PEG2′-γGlu-Stearoyl])[αMeF]VV[αMeK]GG-NH2 [SEQ ID NO 105] | 18 | 0.021 | 0.0148
11 | B1 | 746 | 0.92 | 0.57
12 | H[Aib]EGS[αMeF]TSDV[αMeS]S[αMeF]LEGEAA[αMeK]E[αMeF]IA[αMeF]VK([PEG2′-PEG2′-γGlu-Stearoyl])[αMeK]GG-NH2 [SEQ ID NO 102] | 22 | 0.024 | 0.0206
13 | HK([γGlu-Palmitoyl])EGS[αMeF]TSDV[αMeS]S[αMeF]LEGEAA[αMeK]E[αMeF]IA[αMeF]VV[αMeK]GG-NH2 [SEQ ID NO 98] | 27500 | 28 | 28
14 | H[Aib]EGS[αMeF]TSDV[αMeS]S[αMeF]LEGEAA[αMeK]E[αMeF]K([PEG2′-PEG2′-γGlu-Stearoyl])A[αMeF]VV[αMeK]GG-NH2 [SEQ ID NO 106] | 6140 | 6.5 | 5.79

Biological target: glucagon receptor (GCGR) (human, UniProt P47871 26-477)
Test: cell-based or functional assay

glucagon receptor (GCGR), sequence (P47871 26-477): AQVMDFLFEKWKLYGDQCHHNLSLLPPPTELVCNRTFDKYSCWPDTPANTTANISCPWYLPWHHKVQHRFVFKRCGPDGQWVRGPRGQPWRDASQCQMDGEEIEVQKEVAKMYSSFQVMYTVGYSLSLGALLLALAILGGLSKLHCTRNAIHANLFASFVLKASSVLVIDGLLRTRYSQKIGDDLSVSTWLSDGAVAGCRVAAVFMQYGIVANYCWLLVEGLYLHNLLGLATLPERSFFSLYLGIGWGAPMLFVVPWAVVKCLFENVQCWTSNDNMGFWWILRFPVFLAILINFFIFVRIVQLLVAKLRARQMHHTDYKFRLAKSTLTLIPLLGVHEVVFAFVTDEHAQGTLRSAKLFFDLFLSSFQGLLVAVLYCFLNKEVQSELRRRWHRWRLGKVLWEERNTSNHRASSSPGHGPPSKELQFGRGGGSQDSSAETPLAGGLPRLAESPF

Row | Binder | cAMP Primary assay EC50 Gluc-R [nM] | cAMP Primary assay EC50 Gluc-R (2nd) [nM]
15 | H[Aib]EGS[αMeF]TSDV[αMeS]S[αMeF]LEGEAA[αMeK]E[αMeF]IA[αMeF]VVK([PEG2′-PEG2′-γGlu-Stearoyl])GG-NH2 [SEQ ID NO 101] | 25 | 25.4
16 | H[Aib]EGS[αMeF]TSDV[αMeS]S[αMeF]LEGEAA[αMeK]E[αMeF]IA[αMeF]VV[αMeK]K([PEG2′-PEG2′-γGlu-Stearoyl])G-NH2 [SEQ ID NO 100] | 25 | 24.9
17 | H[Aib]EGS[αMeF]TSDV[αMeS]S[αMeF]LEGEAA[αMeK]E[αMeF]IK([PEG2′-PEG2′-γGlu-Stearoyl])[αMeF]VV[αMeK]GG-NH2 [SEQ ID NO 105] | 25 | 25
18 | B1 | 27 | 27
19 | H[Aib]EGS[αMeF]TSDV[αMeS]S[αMeF]LEGEAA[αMeK]E[αMeF]IA[αMeF]VK([PEG2′-PEG2′-γGlu-Stearoyl])[αMeK]GG-NH2 [SEQ ID NO 102] | 25 | 25.2
20 | HK([γGlu-Palmitoyl])EGS[αMeF]TSDV[αMeS]S[αMeF]LEGEAA[αMeK]E[αMeF]IA[αMeF]VV[αMeK]GG-NH2 [SEQ ID NO 98] | 28 | 28
21 | H[Aib]EGS[αMeF]TSDV[αMeS]S[αMeF]LEGEAA[αMeK]E[αMeF]K([PEG2′-PEG2′-γGlu-Stearoyl])A[αMeF]VV[αMeK]GG-NH2 [SEQ ID NO 106] | 25 | 25.3
